± gives the standard deviation of the averaged measurements.
B1: library; a variant is named by its letters at N, in order (parent)
chain: GCUGUCACCGAGAAACUGUGAAGUAUAUCUUAAACCUGGGCACUUAAAAGAUAUAUGGAGUUAGUAGUGCAACCUGCUCGGUCUGAUGAGUCCNNNNNNGGACGAAACAGC

Assays:
[1] = variants of: B1; test: normalized RNA/DNA level without ligand (relative to sTRSVctl = 100) (log10 (% of sTRSVctl)); HEK293T; ligand: cyclic di-GMP (c-di-GMP-II aptamer); higher = less ribozyme self-cleavage, higher mRNA level; settings: reporter: mCherry (pCS4076), ligand present: no
In short: (§1)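 RNA level was computed as RNA reads over DNA reads divided by a spiked-in non-cleaving sequence or by the top sequences, then scaled and log-transformed. Scaling was ×100 with log10, the top group was 25 sequences, and the threshold was ≥100 DNA reads. The reads came from HEK293T cells transfected at 4 µg per 6-well well with ribozyme switch library plasmids (mCherry, or eGFP in some ligand experiments). Total RNA was extracted with EDTA 72 h after transfection, with any ligand added 1 h before it.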

[2] = variants of: B1; test: normalized RNA/DNA level with ligand (relative to sTRSVctl = 100) (log10 (% of sTRSVctl)); HEK293T; ligand: cyclic di-GMP (c-di-GMP-II aptamer); ligand concentration (+) RNA-Seq: 1 mM; higher = less ribozyme self-cleavage, higher mRNA level; settings: reporter: mCherry (pCS4076), ligand present: yes
In short: as §1

| Variant | normalized RNA/DNA level without ligand (log10) [1] | normalized RNA/DNA level with ligand (log10) [2] |
| --- | --- | --- |
| UAGCAU | 1.653 ± 0.0034 | 1.8 ± 0.11 |
| UAGCAC | 1.708 ± 0.0035 | 1.83 ± 0.095 |
| UAGCAG | 1.82 ± 0.032 | 1.85 ± 0.032 |
| UAGCAA | 1.716 ± 0.0099 | 1.84 ± 0.087 |
| CAGGAG | 1.64 ± 0.091 | 1.79 ± 0.098 |
| CAGGAC | 1.715 ± 0.017 | 1.81 ± 0.1 |
| CAGGAU | 1.64 ± 0.094 | 1.78 ± 0.068 |
| GAGGAC | 1.67 ± 0.053 | 1.79 ± 0.11 |
| GAGGAG | 1.752 ± 0.014 | 1.82 ± 0.081 |
| GAGGAA | 1.6 ± 0.055 | 1.72 ± 0.092 |
| AAGCUG | 1.64 ± 0.019 | 1.79 ± 0.076 |
| AAGCUA | 1.56 ± 0.024 | 1.72 ± 0.12 |
| AAGCUU | 1.7 ± 0.022 | 1.84 ± 0.073 |
| AAGCUC | 1.74 ± 0.012 | 1.89 ± 0.13 |
| UACUGU | 1.6108 ± 0.00033 | 1.79 ± 0.15 |
| UACUGG | 1.731 ± 0.015 | 1.85 ± 0.12 |
| UACUGC | 1.712 ± 0.0056 | 1.83 ± 0.13 |
| AACUGC | 1.686 ± 0.0067 | 1.82 ± 0.089 |
| AACUGU | 1.7 ± 0.023 | 1.85 ± 0.1 |
| CAGAUC | 1.61 ± 0.03 | 1.71 ± 0.18 |
| CAGAUU | 1.48 ± 0.11 | 1.65 ± 0.1 |
| CAGAUG | 1.63 ± 0.0074 | 1.75 ± 0.13 |
| UAGCUA | 1.71 ± 0.038 | 1.82 ± 0.12 |
| UAGCUU | 1.68 ± 0.055 | 1.81 ± 0.073 |

| Variant | normalized RNA/DNA level without ligand (log10) [1] | normalized RNA/DNA level with ligand (log10) [2] |
| --- | --- | --- |
| UAGCUC | 1.75 ± 0.022 | 1.89 ± 0.1 |
| UAGCUG | 1.74 ± 0.038 | 1.86 ± 0.084 |
| CACUGC | 1.76 ± 0.024 | 1.87 ± 0.096 |
| CACUGG | 1.7 ± 0.035 | 1.81 ± 0.13 |
| UAGAUC | 1.595 ± 0.014 | 1.82 ± 0.056 |
| UAGAUA | 1.614 ± 0.012 | 1.78 ± 0.11 |
| UAGAUU | 1.6 ± 0.028 | 1.79 ± 0.067 |
| AAGCAG | 1.79 ± 0.081 | 1.9 ± 0.11 |
| AAGCAU | 1.655 ± 0.0071 | 1.82 ± 0.1 |
| GAGAGG | 1.746 ± 0.016 | 1.82 ± 0.11 |
| GAGAGC | 1.71 ± 0.02 | 1.85 ± 0.12 |
| GAGAGU | 1.65 ± 0.0094 | 1.8 ± 0.1 |
| AAGAUU | 1.63 ± 0.043 | 1.8 ± 0.054 |
| AAGAUC | 1.6 ± 0.084 | 1.74 ± 0.097 |
| AAGAUG | 1.49 ± 0.055 | 1.71 ± 0.075 |
| AACUUG | 1.66 ± 0.051 | 1.85 ± 0.11 |
| AACUUC | 1.714 ± 0.0074 | 1.82 ± 0.095 |
| AACUUU | 1.737 ± 0.004 | 1.85 ± 0.09 |
| AACUUA | 1.615 ± 0.0013 | 1.79 ± 0.17 |
| UAGCGC | 1.76 ± 0.019 | 1.88 ± 0.036 |
| UAGCGG | 1.8203 ± 0.00054 | 1.95 ± 0.067 |
| UAGCGA | 1.61 ± 0.053 | 1.76 ± 0.095 |
| UAGCGU | 1.59 ± 0.056 | 1.72 ± 0.1 |
| GAGAAA | 1.6011 ± 0.00083 | 1.72 ± 0.1 |

| Variant | normalized RNA/DNA level without ligand (log10) [1] | normalized RNA/DNA level with ligand (log10) [2] |
| --- | --- | --- |
| GAGAAU | 1.663 ± 0.011 | 1.76 ± 0.098 |
| GAGAAC | 1.65 ± 0.031 | 1.8 ± 0.09 |
| GAGAUA | 1.69 ± 0.015 | 1.76 ± 0.099 |
| GAGAUC | 1.711 ± 0.0023 | 1.81 ± 0.11 |
| GAGAUG | 1.748 ± 0.0058 | 1.83 ± 0.071 |
| AAGACU | 1.66 ± 0.019 | 1.84 ± 0.057 |
| AAGCCG | 1.732 ± 0.0043 | 1.82 ± 0.069 |
| GACUUC | 1.74 ± 0.038 | 1.91 ± 0.1 |
| UAGAGG | 1.67 ± 0.087 | 1.82 ± 0.1 |
| UAGAGA | 1.51 ± 0.042 | 1.72 ± 0.089 |
| UAGAGU | 1.56 ± 0.066 | 1.73 ± 0.067 |
| UAGAGC | 1.712 ± 0.005 | 1.85 ± 0.047 |
| UACUUC | 1.763 ± 0.0059 | 1.87 ± 0.12 |
| UACUUG | 1.734 ± 0.0022 | 1.89 ± 0.063 |
| UACUUA | 1.7 ± 0.055 | 1.84 ± 0.11 |
| GACUGU | 1.654 ± 0.0065 | 1.8 ± 0.15 |
| GACUGG | 1.68 ± 0.074 | 1.78 ± 0.1 |
| GACUGC | 1.705 ± 0.012 | 1.88 ± 0.068 |
| GAGCCG | 1.823 ± 0.0091 | 1.9 ± 0.11 |
| GAGCCA | 1.79 ± 0.051 | 1.87 ± 0.1 |
| GAGCCC | 1.81 ± 0.1 | 1.92 ± 0.16 |
| AAGGAC | 1.53 ± 0.1 | 1.73 ± 0.072 |
| AAGGAG | 1.54 ± 0.14 | 1.67 ± 0.053 |
| UAGCCA | 1.71 ± 0.04 | 1.86 ± 0.1 |

| Variant | normalized RNA/DNA level without ligand (log10) [1] | normalized RNA/DNA level with ligand (log10) [2] |
| --- | --- | --- |
| UAGCCU | 1.73 ± 0.03 | 1.86 ± 0.043 |
| UAGCCG | 1.79 ± 0.063 | 1.93 ± 0.12 |
| AAGAAG | 1.46 ± 0.049 | 1.66 ± 0.093 |
| CAGCUC | 1.7753 ± 0.00068 | 1.87 ± 0.099 |
| GAGCGG | 1.88 ± 0.079 | 1.96 ± 0.096 |
| GAGCGA | 1.735 ± 0.0089 | 1.85 ± 0.085 |
| AAGCGU | 1.56 ± 0.021 | 1.73 ± 0.11 |
| AAGCGC | 1.669 ± 0.011 | 1.84 ± 0.13 |
| AAGCGG | 1.81 ± 0.035 | 1.88 ± 0.069 |
| CAGACG | 1.681 ± 0.013 | 1.77 ± 0.088 |
| CAGCGU | 1.701 ± 0.011 | 1.84 ± 0.088 |
| CAGCGC | 1.731 ± 0.013 | 1.87 ± 0.15 |
| CAGCGG | 1.78 ± 0.032 | 1.9 ± 0.14 |
| CAGCGA | 1.49 ± 0.1 | 1.7 ± 0.055 |
| AAGAGU | 1.5 ± 0.035 | 1.71 ± 0.12 |
| AAGAGC | 1.59 ± 0.05 | 1.71 ± 0.1 |
| GAGCAU | 1.83 ± 0.037 | 1.91 ± 0.11 |
| GAGCAA | 1.76 ± 0.023 | 1.83 ± 0.12 |
| GAGCAC | 1.82 ± 0.053 | 1.87 ± 0.077 |
| UAGACA | 1.73 ± 0.058 | 1.85 ± 0.15 |
| UAGACG | 1.7073 ± 0.00046 | 1.87 ± 0.12 |
| CACUUU | 1.51 ± 0.057 | 1.7 ± 0.17 |
| CACUUC | 1.71 ± 0.022 | 1.83 ± 0.16 |
| CAGAAU | 1.38 ± 0.13 | 1.53 ± 0.12 |

| Variant | normalized RNA/DNA level without ligand (log10) [1] | normalized RNA/DNA level with ligand (log10) [2] |
| --- | --- | --- |
| CAGAAC | 1.54 ± 0.07 | 1.75 ± 0.089 |
| CAGAAG | 1.68 ± 0.039 | 1.86 ± 0.092 |
| CAGCCG | 1.847 ± 0.0028 | 1.9 ± 0.074 |
| CAGCCU | 1.59 ± 0.055 | 1.79 ± 0.12 |
| CAGCAG | 1.79 ± 0.028 | 1.85 ± 0.12 |
| CAGCAU | 1.56 ± 0.1 | 1.72 ± 0.075 |
| CAGCAC | 1.65 ± 0.067 | 1.79 ± 0.025 |
| UAGAAG | 1.61 ± 0.027 | 1.8 ± 0.11 |
| UAGAAC | 1.641 ± 0.014 | 1.82 ± 0.13 |
| GAGCUU | 1.8 ± 0.045 | 1.9 ± 0.14 |
| GAGCUA | 1.79 ± 0.038 | 1.88 ± 0.11 |
| GAGCUC | 1.83 ± 0.052 | 1.91 ± 0.15 |
| UAGGAC | 1.528 ± 0.015 | 1.73 ± 0.082 |
| UAGGAG | 1.59 ± 0.05 | 1.76 ± 0.13 |
| GAGACA | 1.8 ± 0.033 | 1.85 ± 0.088 |
| GAGACG | 1.8 ± 0.045 | 1.83 ± 0.13 |
| CAGAGA | 1.41 ± 0.064 | 1.64 ± 0.13 |
| CAGAGG | 1.64 ± 0.069 | 1.8 ± 0.046 |
| CAGAGU | 1.652 ± 0.0071 | 1.86 ± 0.11 |
| CAGAGC | 1.67 ± 0.036 | 1.83 ± 0.09 |
